T1: MBP-Epe1 (S. pombe, UniProt O94603 1-948)
T1 sequence: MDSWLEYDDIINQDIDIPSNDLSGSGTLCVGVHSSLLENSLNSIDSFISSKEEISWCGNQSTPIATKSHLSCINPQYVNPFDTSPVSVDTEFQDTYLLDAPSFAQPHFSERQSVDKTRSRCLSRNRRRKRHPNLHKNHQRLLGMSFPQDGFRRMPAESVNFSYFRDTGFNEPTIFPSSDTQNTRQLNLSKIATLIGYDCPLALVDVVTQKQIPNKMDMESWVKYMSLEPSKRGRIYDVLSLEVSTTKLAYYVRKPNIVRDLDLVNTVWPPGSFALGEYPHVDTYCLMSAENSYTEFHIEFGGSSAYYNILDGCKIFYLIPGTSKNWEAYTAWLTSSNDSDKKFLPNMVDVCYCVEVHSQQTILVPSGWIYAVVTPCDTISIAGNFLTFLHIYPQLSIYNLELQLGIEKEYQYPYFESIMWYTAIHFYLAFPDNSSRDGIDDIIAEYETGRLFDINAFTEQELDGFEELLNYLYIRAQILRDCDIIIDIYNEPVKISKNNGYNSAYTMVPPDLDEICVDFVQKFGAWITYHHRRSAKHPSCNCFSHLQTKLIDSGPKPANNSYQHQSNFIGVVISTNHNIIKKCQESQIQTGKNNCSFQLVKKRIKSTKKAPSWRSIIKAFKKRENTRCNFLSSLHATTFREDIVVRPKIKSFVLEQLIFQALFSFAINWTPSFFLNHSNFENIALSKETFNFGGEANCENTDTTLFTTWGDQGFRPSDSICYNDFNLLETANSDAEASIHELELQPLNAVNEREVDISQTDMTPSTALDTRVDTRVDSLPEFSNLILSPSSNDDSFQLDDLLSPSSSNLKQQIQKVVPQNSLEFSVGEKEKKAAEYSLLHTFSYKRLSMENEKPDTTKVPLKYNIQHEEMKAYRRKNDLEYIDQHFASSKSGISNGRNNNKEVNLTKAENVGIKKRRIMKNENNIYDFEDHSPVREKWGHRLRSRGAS


How the values were obtained:
[1] = system: Swi6-WT (Schizosaccharomyces pombe); test: EMSA; conditions: histone H3K9me3
H3K9me3 mononucleosomes = test: native gel or EMSA
mass photometry = target: the molecule itself; test: mass photometry
MBP-Epe1 = target: T1, MBP-Epe1; test: pull-down

Kd (H3K9me3 mononucleosomes) | specificity for H3K9me3 over H3K9me0 mononucleosomes (H3K9me3 mononucleosomes) | Molecule | Kd (mass photometry) | stoichiometry N (mass photometry) | also measured
 |  | H3K9me3 mononucleosome (Epicypher 16-0315-20) |  |  | Kd [1]: 50 nM
39 nM | 2.3 fold | Swi6-T278Y (recombinant, full length) (from UniProt P40381 1-328) (natural protein) |  |  | 
50 nM | 2.4 fold | Swi6-WT (recombinant, full length) (natural protein) MKKGGVRSYRRSSTSKRSVIDDDSEPELPSMTKEAIASHKADSGSSDNEVESDHESKSSSKKLKENAKEEEGGEEEEEDEYVVEKVLKHRMARKGGGYEYLLKWEGYDDPSDNTWSSEADCSGCKQLIEAYWNEHGGRPEPSKRKRTARPKKPEAKEPSPKSRKTDEDKHDKDSNEKIEDVNEKTIKFADKSQEEFNENGPPSGQPNGHIESDNESKSPSQKESNESEDIQIAETPSNVTPKKKPSPEVPKLPDNRELTVKQVENYDSWEDLVSSIDTIERKDDGTLEIYLTWKNGAISHHPSTITNKKCPQKMLQFYESHLTFRENE | 0.38 nM | 2 | 
 |  | Swi6-T278K (recombinant, full length) (natural protein) MKKGGVRSYRRSSTSKRSVIDDDSEPELPSMTKEAIASHKADSGSSDNEVESDHESKSSSKKLKENAKEEEGGEEEEEDEYVVEKVLKHRMARKGGGYEYLLKWEGYDDPSDNTWSSEADCSGCKQLIEAYWNEHGGRPEPSKRKRTARPKKPEAKEPSPKSRKTDEDKHDKDSNEKIEDVNEKTIKFADKSQEEFNENGPPSGQPNGHIESDNESKSPSQKESNESEDIQIAETPSNVTPKKKPSPEVPKLPDNRELTVKQVENYDSWEDLVSSIDKIERKDDGTLEIYLTWKNGAISHHPSTITNKKCPQKMLQFYESHLTFRENE | 0.2 nM | 2 | 
 |  | FLAG-Swi6-WT (recombinant) (natural protein) MKKGGVRSYRRSSTSKRSVIDDDSEPELPSMTKEAIASHKADSGSSDNEVESDHESKSSSKKLKENAKEEEGGEEEEEDEYVVEKVLKHRMARKGGGYEYLLKWEGYDDPSDNTWSSEADCSGCKQLIEAYWNEHGGRPEPSKRKRTARPKKPEAKEPSPKSRKTDEDKHDKDSNEKIEDVNEKTIKFADKSQEEFNENGPPSGQPNGHIESDNESKSPSQKESNESEDIQIAETPSNVTPKKKPSPEVPKLPDNRELTVKQVENYDSWEDLVSSIDTIERKDDGTLEIYLTWKNGAISHHPSTITNKKCPQKMLQFYESHLTFRENE |  |  | binding result (MBP-Epe1): binds
 |  | Swi6-T278Y (recombinant, full length) (natural protein) MKKGGVRSYRRSSTSKRSVIDDDSEPELPSMTKEAIASHKADSGSSDNEVESDHESKSSSKKLKENAKEEEGGEEEEEDEYVVEKVLKHRMARKGGGYEYLLKWEGYDDPSDNTWSSEADCSGCKQLIEAYWNEHGGRPEPSKRKRTARPKKPEAKEPSPKSRKTDEDKHDKDSNEKIEDVNEKTIKFADKSQEEFNENGPPSGQPNGHIESDNESKSPSQKESNESEDIQIAETPSNVTPKKKPSPEVPKLPDNRELTVKQVENYDSWEDLVSSIDYIERKDDGTLEIYLTWKNGAISHHPSTITNKKCPQKMLQFYESHLTFRENE | 0.27 nM | 2 | 
